Reference: US5776888A, “Compounds and compositions for delivering active agents” (Emisphere Technologies, Inc., priority 1997, dated 1998)
Where two headings read alike, the source gives them in different places.

Design: species or system rats
Settings: rat, in vivo, 1 mg/kg

With interferon the “Mean peak serum interferon concentration” value was 79±100 and the “Mean peak serum interferon concentration” value (po) was 1951±1857.
